Results reported in the supplement of paper PMC10266784.

B1: library; numbered along this chain (parent)
chain: MAAAAAAAAEQQSSNGPVKKSMREKAVERRSVNKEHNSNFKAGYIPIDEDRLHKTGLRGRKGNLAICVIILLFILAVINLIITLVIWAVIRIGPNGCDSMEFHESGLLRFKQVSDMGVIHPLYKSTVGGRRNENLVITGNNQPIVFQQGTTKLSVENNKTSITSDIGMQFFDPRTQNILFSTDYETHEFHLPSGVKSLNVQKASTERITSNATSDLNIKVDGRAIVRGNEGVFIMGKTIEFHMGGNMELKAENSIILNGSVMVSTTRLPSSSSGDQLGSGDWVRYKLCMCADGTLFKVQVTSQNMGCQISDNPCGNTH

Variants of: B1
Test: SGCB cell-surface expression functional score (HA stain, bin4 vs bin1, normalised to synonymous) (log10 ratio); higher = more cell-surface SGCB (functional)
Method in brief: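 HEK293 cells stably expressing alpha-, gamma- and delta-sarcoglycan received codon-saturation libraries of HA-tagged, YFP-fused human beta-sarcoglycan by lentiviral transduction at MOI <0.1, performed in duplicate. Cells positive for YFP were sorted after 72 hours and cultured for 5–7 days, then stained on ice with Alexa Fluor 647 anti-HA and fixed. Fixed cells were sorted into four 5% intensity bins and amplicon-sequenced, and the log ratio of highest-bin to lowest-bin variant frequency, as a median over codons and transductions, gives the functional score. Per section, synonymous variants were scaled to mean 0, SD 0.5.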

SGCB cell-surface expression functional score (log10), by site and new letter:
K196: W -0.69 | N -0.02 | M 0.21 | T -0.64 | C -0.14 | G -0.43 | F -0.74 | L -0.57 | A 0.53 | D -2.29 | R 0.33 | I -0.46 | S -0.1 | E -0.37 | P -0.01
T182: L -1.43 | S -1.55 | W -1.65 | H -1.44 | G -1.06 | K -0.75 | C -2.09 | I -1 | Y -2.23 | E -1.6 | P -1.25 | N -1.25 | F -2.63 | M -1.87 | D -2.4 | V -1.47 | R -1.25 | Q -1.49 | A -1.25
H190: P 0.42 | W -0.79 | V -0.28 | C -0.62 | D -0.59 | A -0.38 | R 0.34 | Y 0.55 | T 0.55 | E -0.09 | I -0.36 | K 0.07 | M -0.84 | Q 0.16 | L -0.13 | G 0.07 | S 0.28 | F 0.15 | N 0.89
V195: H -1.52 | D -2.29 | R -1.37 | P -1.1 | S -0.44 | T -0.23 | G -1.83 | W 0.45 | A 0.11 | Y -2.58 | E -0.23 | Q -1.76 | M -0.5 | I 0.09 | C 0.64 | F -1.74 | N -1.73 | K -1.88 | L -0.39
T186: V -0.85 | R 0.06 | G -0.44 | F -0.05 | A 0.54 | L -0.15 | E 0.13 | K 0.28 | D 0.53 | M -1.55 | Q 0.7 | P -1.73 | I 0.3 | H 0.62 | C -0.92 | N -0.55 | Y 0.08 | W -1.12 | S -0.18
H187: V 0.03 | K -0.37 | Y -0.18 | T -1.03 | Q -0.38 | G -1.69 | S -0.12 | P -1.29 | R -0.76 | N -0.57 | E 0.18 | M -0.22 | A -0.81 | W 0.48 | L -1.47 | C 0.07 | F -0.63 | D 0.45 | I -0.51
E185: Y 0.02 | T -1.1 | N -0.3 | R -0.63 | F -0.44 | M -1.36 | A 0.2 | D 0.34 | I -0.23 | Q -0.17 | H -1.02 | K -0.01 | G -0.26 | W -0.87 | C 0.41 | P 0.33 | S 0.53 | L -0.11 | V -0.42
S197: K -0.3 | I -0.04 | A -0.6 | N -0.61 | Q 0.43 | C 0.14 | E -0.43 | R -0.6 | H -0.72 | Y -1.16 | G -0.19 | M -1.08 | F -2.04 | W 0.4 | T -0.2 | D -0.76 | L 0.24 | P -2.03 | V 1.76
E188: A -1.13 | R -0.8 | C -1.07 | L -1.16 | T -0.38 | H -0.17 | Y -1.16 | P -0.15 | Q 0.29 | S -0.61 | K -0.62 | I -1.93 | G -0.55 | D -0.04 | N -0.55 | V -0.11 | W -0.68 | F -1.65 | M -2.13
